This is an account of results in US20140105889A1 (published 2014).

The labels stand for the following.
B1: GpH7-B3 D270H / GpL16-k0 (antibody, human IgG1)
heavy: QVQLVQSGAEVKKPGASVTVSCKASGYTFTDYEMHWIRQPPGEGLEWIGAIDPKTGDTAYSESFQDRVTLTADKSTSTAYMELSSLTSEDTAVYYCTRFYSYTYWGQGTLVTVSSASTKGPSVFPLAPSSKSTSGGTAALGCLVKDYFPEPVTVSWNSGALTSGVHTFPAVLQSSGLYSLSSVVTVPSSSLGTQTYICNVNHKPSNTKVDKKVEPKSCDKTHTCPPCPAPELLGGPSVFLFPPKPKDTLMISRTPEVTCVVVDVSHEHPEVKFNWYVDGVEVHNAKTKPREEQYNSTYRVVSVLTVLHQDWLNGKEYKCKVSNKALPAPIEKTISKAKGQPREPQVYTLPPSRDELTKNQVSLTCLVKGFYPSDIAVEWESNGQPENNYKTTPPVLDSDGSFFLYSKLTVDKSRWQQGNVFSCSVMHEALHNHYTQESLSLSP
light: DIVMTQSPLSLPVTPGEPASISCQASESLVHSNRNTYLHWYLQKPGQSPQLLIYKVSNRFSGVPDRFSGSGSGTDFTLKISRVEAEDVGVYYCSQNTHVPPTFGQGTKVEIE
notes: B3 variant: anti-glypican-3 IgG1 (constant region B3 = G1d with K439E) with one substitution, EU numbering; also called B3 variant D270H; copies: 2 + 2
B2: GpH7-B3 D270V / GpL16-k0 (antibody, human IgG1)
heavy: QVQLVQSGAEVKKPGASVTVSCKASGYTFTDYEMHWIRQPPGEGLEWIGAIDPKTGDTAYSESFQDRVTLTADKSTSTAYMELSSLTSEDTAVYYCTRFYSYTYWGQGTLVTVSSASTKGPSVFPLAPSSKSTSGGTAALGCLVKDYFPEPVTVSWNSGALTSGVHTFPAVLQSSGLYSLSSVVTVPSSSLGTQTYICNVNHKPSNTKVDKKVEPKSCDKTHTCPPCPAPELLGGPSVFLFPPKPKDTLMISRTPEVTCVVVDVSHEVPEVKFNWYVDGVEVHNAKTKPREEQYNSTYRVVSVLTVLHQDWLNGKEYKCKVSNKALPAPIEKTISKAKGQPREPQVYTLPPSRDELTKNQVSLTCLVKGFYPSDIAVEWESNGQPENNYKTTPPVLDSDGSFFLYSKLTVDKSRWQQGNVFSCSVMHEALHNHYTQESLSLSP
light: DIVMTQSPLSLPVTPGEPASISCQASESLVHSNRNTYLHWYLQKPGQSPQLLIYKVSNRFSGVPDRFSGSGSGTDFTLKISRVEAEDVGVYYCSQNTHVPPTFGQGTKVEIE
notes: B3 variant: anti-glypican-3 IgG1 (constant region B3 = G1d with K439E) with one substitution, EU numbering; also called B3 variant D270V; copies: 2 + 2
B3: GpH7-B3 P271H / GpL16-k0 (antibody, human IgG1)
heavy: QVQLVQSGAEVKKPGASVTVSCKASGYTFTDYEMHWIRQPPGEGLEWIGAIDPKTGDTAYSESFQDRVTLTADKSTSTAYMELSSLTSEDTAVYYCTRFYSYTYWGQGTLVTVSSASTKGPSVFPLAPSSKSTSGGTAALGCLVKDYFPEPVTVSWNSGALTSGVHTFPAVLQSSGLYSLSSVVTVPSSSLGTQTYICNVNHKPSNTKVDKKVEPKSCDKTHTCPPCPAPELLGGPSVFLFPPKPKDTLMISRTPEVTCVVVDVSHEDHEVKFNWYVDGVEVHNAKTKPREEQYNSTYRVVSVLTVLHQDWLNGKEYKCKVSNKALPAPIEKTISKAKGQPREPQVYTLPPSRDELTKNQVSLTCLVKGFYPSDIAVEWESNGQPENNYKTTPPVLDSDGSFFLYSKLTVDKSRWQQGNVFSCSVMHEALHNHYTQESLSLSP
light: DIVMTQSPLSLPVTPGEPASISCQASESLVHSNRNTYLHWYLQKPGQSPQLLIYKVSNRFSGVPDRFSGSGSGTDFTLKISRVEAEDVGVYYCSQNTHVPPTFGQGTKVEIE
notes: B3 variant: anti-glypican-3 IgG1 (constant region B3 = G1d with K439E) with one substitution, EU numbering; also called B3 variant P271H; copies: 2 + 2
B4: GpH7-B3 D270I / GpL16-k0 (antibody, human IgG1)
heavy: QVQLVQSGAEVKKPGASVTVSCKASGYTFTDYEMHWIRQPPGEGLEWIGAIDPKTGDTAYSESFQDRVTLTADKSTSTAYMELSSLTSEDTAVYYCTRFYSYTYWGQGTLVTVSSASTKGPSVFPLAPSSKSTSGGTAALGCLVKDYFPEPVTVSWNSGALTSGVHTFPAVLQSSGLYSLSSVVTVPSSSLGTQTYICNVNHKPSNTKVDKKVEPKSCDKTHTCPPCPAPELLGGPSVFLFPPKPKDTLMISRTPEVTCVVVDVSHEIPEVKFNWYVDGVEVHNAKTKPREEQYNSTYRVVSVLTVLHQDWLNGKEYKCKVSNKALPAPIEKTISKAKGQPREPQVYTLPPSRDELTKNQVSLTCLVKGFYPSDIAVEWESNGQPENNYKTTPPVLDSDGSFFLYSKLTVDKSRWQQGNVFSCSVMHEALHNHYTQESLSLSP
light: DIVMTQSPLSLPVTPGEPASISCQASESLVHSNRNTYLHWYLQKPGQSPQLLIYKVSNRFSGVPDRFSGSGSGTDFTLKISRVEAEDVGVYYCSQNTHVPPTFGQGTKVEIE
notes: B3 variant: anti-glypican-3 IgG1 (constant region B3 = G1d with K439E) with one substitution, EU numbering; also called B3 variant D270I; copies: 2 + 2
B5: GpH7-B3/GpL16-k0 with P329V introduced into GpH7-B3 (antibody, human IgG1)
heavy: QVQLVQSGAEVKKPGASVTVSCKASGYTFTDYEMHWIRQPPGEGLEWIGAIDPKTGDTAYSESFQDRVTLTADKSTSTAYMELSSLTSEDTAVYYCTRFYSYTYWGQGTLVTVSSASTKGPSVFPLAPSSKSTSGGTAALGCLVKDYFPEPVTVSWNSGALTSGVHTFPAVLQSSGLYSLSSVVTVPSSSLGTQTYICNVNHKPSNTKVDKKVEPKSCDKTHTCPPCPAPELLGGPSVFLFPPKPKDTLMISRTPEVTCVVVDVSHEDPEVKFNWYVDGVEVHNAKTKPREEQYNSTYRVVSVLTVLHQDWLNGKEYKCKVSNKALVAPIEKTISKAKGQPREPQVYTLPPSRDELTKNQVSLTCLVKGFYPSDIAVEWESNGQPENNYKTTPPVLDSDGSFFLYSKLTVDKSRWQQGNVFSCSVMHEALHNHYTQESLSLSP
light: DIVMTQSPLSLPVTPGEPASISCQASESLVHSNRNTYLHWYLQKPGQSPQLLIYKVSNRFSGVPDRFSGSGSGTDFTLKISRVEAEDVGVYYCSQNTHVPPTFGQGTKVEIE
notes: Anti-glypican-3 human IgG1; constant region B3 (G1d with K439E); Fc variant; also called B3 variant; copies: 2 + 2
B6: GpH7-B3/GpL16-k0 with S324P introduced into GpH7-B3 (antibody, human IgG1)
heavy: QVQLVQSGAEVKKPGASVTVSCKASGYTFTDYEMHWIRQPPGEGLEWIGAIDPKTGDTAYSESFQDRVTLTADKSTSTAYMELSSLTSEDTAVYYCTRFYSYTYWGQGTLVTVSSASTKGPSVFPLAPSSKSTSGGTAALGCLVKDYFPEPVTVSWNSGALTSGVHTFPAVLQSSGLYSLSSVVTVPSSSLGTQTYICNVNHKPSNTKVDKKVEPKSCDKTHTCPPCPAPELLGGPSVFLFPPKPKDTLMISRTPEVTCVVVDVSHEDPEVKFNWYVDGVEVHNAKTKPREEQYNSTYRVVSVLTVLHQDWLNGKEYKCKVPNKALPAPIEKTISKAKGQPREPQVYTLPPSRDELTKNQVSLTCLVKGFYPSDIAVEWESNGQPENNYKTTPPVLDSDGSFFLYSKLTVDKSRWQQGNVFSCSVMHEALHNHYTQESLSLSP
light: DIVMTQSPLSLPVTPGEPASISCQASESLVHSNRNTYLHWYLQKPGQSPQLLIYKVSNRFSGVPDRFSGSGSGTDFTLKISRVEAEDVGVYYCSQNTHVPPTFGQGTKVEIE
notes: as for B5
B7: GpH7-B3/GpL16-k0 with P329I introduced into GpH7-B3 (antibody, human IgG1)
heavy: not shown
light: DIVMTQSPLSLPVTPGEPASISCQASESLVHSNRNTYLHWYLQKPGQSPQLLIYKVSNRFSGVPDRFSGSGSGTDFTLKISRVEAEDVGVYYCSQNTHVPPTFGQGTKVEIE
notes: as for B5
B8: GpH7-B3/GpL16-k0 with P329R introduced into GpH7-B3 (antibody, human IgG1)
heavy: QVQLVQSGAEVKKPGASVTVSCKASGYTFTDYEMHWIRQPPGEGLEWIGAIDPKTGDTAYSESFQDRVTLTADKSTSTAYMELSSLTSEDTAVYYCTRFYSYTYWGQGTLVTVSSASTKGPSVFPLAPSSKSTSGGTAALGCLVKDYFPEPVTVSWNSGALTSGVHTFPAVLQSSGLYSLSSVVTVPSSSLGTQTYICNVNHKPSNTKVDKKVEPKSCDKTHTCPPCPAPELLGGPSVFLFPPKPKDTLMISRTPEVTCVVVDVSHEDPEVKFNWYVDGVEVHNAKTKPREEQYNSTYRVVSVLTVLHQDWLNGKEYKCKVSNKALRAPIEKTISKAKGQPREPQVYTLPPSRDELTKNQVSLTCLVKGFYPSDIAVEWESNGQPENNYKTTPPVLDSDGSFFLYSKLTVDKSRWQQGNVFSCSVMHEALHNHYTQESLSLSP
light: DIVMTQSPLSLPVTPGEPASISCQASESLVHSNRNTYLHWYLQKPGQSPQLLIYKVSNRFSGVPDRFSGSGSGTDFTLKISRVEAEDVGVYYCSQNTHVPPTFGQGTKVEIE
notes: as for B5
B9: GpH7-B3/GpL16-k0 with P329L introduced into GpH7-B3 (antibody, human IgG1)
heavy: not shown
light: DIVMTQSPLSLPVTPGEPASISCQASESLVHSNRNTYLHWYLQKPGQSPQLLIYKVSNRFSGVPDRFSGSGSGTDFTLKISRVEAEDVGVYYCSQNTHVPPTFGQGTKVEIE
notes: as for B5
B10: GpH7-B3/GpL16-k0 with P329K introduced into GpH7-B3 (antibody, human IgG1)
heavy: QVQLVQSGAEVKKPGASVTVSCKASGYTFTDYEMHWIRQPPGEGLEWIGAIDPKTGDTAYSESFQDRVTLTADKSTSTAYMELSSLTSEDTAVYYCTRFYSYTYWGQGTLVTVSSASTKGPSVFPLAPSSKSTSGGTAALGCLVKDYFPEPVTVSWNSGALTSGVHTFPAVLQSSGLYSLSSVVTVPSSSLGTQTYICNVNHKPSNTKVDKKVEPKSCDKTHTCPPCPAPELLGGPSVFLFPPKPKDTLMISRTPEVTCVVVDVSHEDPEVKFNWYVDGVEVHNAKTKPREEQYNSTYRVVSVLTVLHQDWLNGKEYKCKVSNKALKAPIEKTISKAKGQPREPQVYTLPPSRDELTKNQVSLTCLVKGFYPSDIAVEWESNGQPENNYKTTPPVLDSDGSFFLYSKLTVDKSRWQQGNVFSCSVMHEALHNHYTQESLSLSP
light: DIVMTQSPLSLPVTPGEPASISCQASESLVHSNRNTYLHWYLQKPGQSPQLLIYKVSNRFSGVPDRFSGSGSGTDFTLKISRVEAEDVGVYYCSQNTHVPPTFGQGTKVEIE
notes: as for B5
B11: GpH7-B3/GpL16-k0 with Y300K introduced into GpH7-B3 (antibody, human IgG1)
heavy: not shown
light: DIVMTQSPLSLPVTPGEPASISCQASESLVHSNRNTYLHWYLQKPGQSPQLLIYKVSNRFSGVPDRFSGSGSGTDFTLKISRVEAEDVGVYYCSQNTHVPPTFGQGTKVEIE
notes: as for B5
B12: GpH7-B3/GpL16-k0 with P329N introduced into GpH7-B3 (antibody, human IgG1)
heavy: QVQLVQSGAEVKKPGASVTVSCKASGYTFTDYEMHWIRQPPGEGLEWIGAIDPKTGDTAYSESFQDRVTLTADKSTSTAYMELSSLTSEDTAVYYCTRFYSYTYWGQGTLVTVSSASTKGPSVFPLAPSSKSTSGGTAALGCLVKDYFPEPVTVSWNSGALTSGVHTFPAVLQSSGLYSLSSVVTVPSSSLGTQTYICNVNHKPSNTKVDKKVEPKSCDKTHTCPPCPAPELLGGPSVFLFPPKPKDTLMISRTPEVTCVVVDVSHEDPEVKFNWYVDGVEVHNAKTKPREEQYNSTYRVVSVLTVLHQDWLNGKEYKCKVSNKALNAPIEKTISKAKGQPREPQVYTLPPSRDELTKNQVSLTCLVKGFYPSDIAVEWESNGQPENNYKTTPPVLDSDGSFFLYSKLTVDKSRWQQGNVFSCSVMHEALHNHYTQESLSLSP
light: DIVMTQSPLSLPVTPGEPASISCQASESLVHSNRNTYLHWYLQKPGQSPQLLIYKVSNRFSGVPDRFSGSGSGTDFTLKISRVEAEDVGVYYCSQNTHVPPTFGQGTKVEIE
notes: as for B5
B13: GpH7-B3/GpL16-k0 with S324K introduced into GpH7-B3 (antibody, human IgG1)
heavy: not shown
light: DIVMTQSPLSLPVTPGEPASISCQASESLVHSNRNTYLHWYLQKPGQSPQLLIYKVSNRFSGVPDRFSGSGSGTDFTLKISRVEAEDVGVYYCSQNTHVPPTFGQGTKVEIE
notes: as for B5
B14: GpH7-B3/GpL16-k0 with P329M introduced into GpH7-B3 (antibody, human IgG1)
heavy: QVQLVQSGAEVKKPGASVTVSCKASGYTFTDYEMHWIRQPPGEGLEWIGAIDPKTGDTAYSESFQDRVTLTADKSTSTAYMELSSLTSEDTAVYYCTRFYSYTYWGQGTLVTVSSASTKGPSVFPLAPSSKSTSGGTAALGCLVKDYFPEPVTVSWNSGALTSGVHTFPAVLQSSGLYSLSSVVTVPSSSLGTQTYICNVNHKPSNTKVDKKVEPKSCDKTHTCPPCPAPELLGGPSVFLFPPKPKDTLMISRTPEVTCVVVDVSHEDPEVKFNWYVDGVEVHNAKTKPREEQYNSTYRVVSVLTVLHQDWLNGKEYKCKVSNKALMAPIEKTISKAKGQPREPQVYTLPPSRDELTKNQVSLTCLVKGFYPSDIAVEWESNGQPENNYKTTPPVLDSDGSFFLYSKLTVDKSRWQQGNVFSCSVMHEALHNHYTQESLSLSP
light: DIVMTQSPLSLPVTPGEPASISCQASESLVHSNRNTYLHWYLQKPGQSPQLLIYKVSNRFSGVPDRFSGSGSGTDFTLKISRVEAEDVGVYYCSQNTHVPPTFGQGTKVEIE
notes: as for B5
B15: GpH7-B3/GpL16-k0 with P329T introduced into GpH7-B3 (antibody, human IgG1)
heavy: not shown
light: DIVMTQSPLSLPVTPGEPASISCQASESLVHSNRNTYLHWYLQKPGQSPQLLIYKVSNRFSGVPDRFSGSGSGTDFTLKISRVEAEDVGVYYCSQNTHVPPTFGQGTKVEIE
notes: as for B5
B16: GpH7-B3/GpL16-k0 with P329Q introduced into GpH7-B3 (antibody, human IgG1)
heavy: not shown
light: DIVMTQSPLSLPVTPGEPASISCQASESLVHSNRNTYLHWYLQKPGQSPQLLIYKVSNRFSGVPDRFSGSGSGTDFTLKISRVEAEDVGVYYCSQNTHVPPTFGQGTKVEIE
notes: as for B5

The target of the first test is T1, human FcγRIIIa(F) (human, UniProt P08637 17-208, limits assumed).
T1 construct: also called FcgRIIIaF; FcγRIIIa allotype F158
In words: SPR (Biacore), antibody captured, FcγR as analyte.
T1 sequence (P08637 other isoform, or with tags, fused parts or gaps limits assumed): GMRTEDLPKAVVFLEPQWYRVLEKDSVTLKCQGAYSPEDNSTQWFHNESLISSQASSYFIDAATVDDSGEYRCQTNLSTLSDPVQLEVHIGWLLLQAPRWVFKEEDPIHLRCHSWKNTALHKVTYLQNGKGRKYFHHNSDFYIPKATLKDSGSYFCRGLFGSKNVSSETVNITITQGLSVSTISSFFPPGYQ
Method: (§1) Interaction between each modified antibody and Fcγ receptor prepared in the manner described above was analyzed using the Biacore T100 (GE Healthcare), Biacore T200 (GE Healthcare), Biacore A100 or Biacore 4000. HBS-EP+ (GE Healthcare) was used for the running buffer, and measurements were carried out at 25° C. The chips used were chips in which antigen peptides, Protein A (Thermo Scientific), Protein A/G (Thermo Scientific) or Protein L (ACTIGEN or BioVision) were immobilized on the Series S Sensor Chip CM5 (GE Healthcare) or Series S Sensor Chip CM4 (GE Healthcare) by amine coupling, or chips in which preliminarily biotinylated antigen peptides were allowed to interact and then immobilized on the Series S Sensor Chip SA (certified) (GE Healthcare). The target antibodies were captured on these sensor chips, Fcγ receptor diluted with the running buffer was allowed to interact, followed by measurement of the amount of bound antibody. The amounts bound were compared between antibodies. However, since the amount of Fcγ receptor bound depends on the amount of captured antibody, the values used for comparison were first corrected by dividing the amount of Fcγ receptor bound by the captured amount of each antibody. Through reaction with 10 mM glycine-HCl at pH 1.5, the sensor chips were regenerated by washing off antibody captured on the sensor chips and used repeatedly.
(§2) Binding strength was evaluated according to the following method based on the results of analyzing the interaction with each FcγR. […] That value was then further multiplied by 100, and the resulting value was used as an indicator of relative binding activity to each FcγR.
Consider B1, for which the “relative binding activity (amount bound / amount bound by GpH7-B3/GpL16-k0 x100)” value is 11 % of GpH7-B3/GpL16-k0. On to B2, for which the “relative binding activity (amount bound / amount bound by GpH7-B3/GpL16-k0 x100)” value is 19 % of GpH7-B3/GpL16-k0. Same read-out and setting: with B3 the figure was 50 % of GpH7-B3/GpL16-k0; with B4, 23 % of GpH7-B3/GpL16-k0.

For a further test, the target named is T2, human FcγRIIIa(F) (human, UniProt P08637 17-208, limits assumed).
T2 construct: also called FcgRIIIaF; FcγRIIIa allotype F158
In words: SPR (Biacore), captured antibody, FcγR analyte; bound amount relative to GpH7-B3/GpL16-k0 x100.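 Further: receptor response divided by the antibody amount captured on the chip before comparison with the reference antibody, measured at 25 °C in HBS-EP+ running buffer.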
T2 sequence (P08637 other isoform, or with tags, fused parts or gaps limits assumed): as above
Method: as §1, §2
Take B5: the relative binding activity was 7 % of GpH7-B3/GpL16-k0.

In the case of B6, the relative binding activity was 35 % of GpH7-B3/GpL16-k0. For the molecule B7, the relative binding activity was 2 % of GpH7-B3/GpL16-k0. Regarding B8, the relative binding activity was -2 % of GpH7-B3/GpL16-k0.

For B9, the relative binding activity was 0 % of GpH7-B3/GpL16-k0. On to B10, for which the relative binding activity is -1 % of GpH7-B3/GpL16-k0. For the molecule B11, the relative binding activity was 35 % of GpH7-B3/GpL16-k0. B12: the relative binding activity was 3 % of GpH7-B3/GpL16-k0.

On to B13, for which the relative binding activity was 74 % of GpH7-B3/GpL16-k0. Take B14: the relative binding activity is 0 % of GpH7-B3/GpL16-k0. With B15, the relative binding activity was -1 % of GpH7-B3/GpL16-k0. Take B16: the relative binding activity was -1 % of GpH7-B3/GpL16-k0.
